Experimental data as given in US20240239898A1 (published 2024).
Positions count from the first letter of the chain named. Names and notes keep the numbering of the source.

B1: MFc2 (C4n), monomeric IgG4 Fc variant with no YTE mutations (other)
chain: GPSVFLFPPKPKDTLMISRTPEVTCVVVDVSQEDPEVQFNWYVDGVEVHNAKTKPREEQFNSTYRVVSVLTVLHQDWLNGKEYKCKVSNKGLPSSIEKTISKAKGQPREPQVYTFPPSQEEMTKNQVSLRCLVKGFYPSDIAVEWESNGQPENNYKTTKPVLDSDGSFRLESRLTVDKSRWQEGNVFSCSVMHEALHNHYTQKSLSLSL
B2: MFc3, the S354E point mutant of MFc1 (other)
chain: B1 chain with M16Y, S18T, T20E, S118E
B3: MFc4 (T1-S354E), monomeric IgG4 Fc variant (other)
chain: GPSVFLFPPKPKDTLMISRTPEVTCVVVDVSQEDPEVQFNWYVDGVEVHNAKTKPREEQFNSTYRVVSVLTVLHQDWLNGKEYKCKVSNKGLPSSIEKTISKAKGQPREPQVYTFPPEQEEMTKNQVSLRCLVKGFYPSDIAVEWESNGQPENNYKTTKPVLDSDGSFRLESRLTVDKSRWQEGNVFSCSVMHEACSYHLCKSLSLSL
notes: Engineered IgG4 CH2-CH3 with the CH3 monomer set, S354E and the half-life mutation set around residues 432-438 in place of YTE

Key:
[1] = target: recombinant human FcRn (heterodimer of FcRn heavy chain and beta2-microglobulin) (human) (UniProt P55899); test: BLI (Octet), biotinylated human FcRn on streptavidin sensors, pH 6, 1:1 model
Sequence of recombinant human FcRn (heterodimer of FcRn heavy chain and beta2-microglobulin) (human) (P55899 24-297 limits assumed, chain 1 of 2): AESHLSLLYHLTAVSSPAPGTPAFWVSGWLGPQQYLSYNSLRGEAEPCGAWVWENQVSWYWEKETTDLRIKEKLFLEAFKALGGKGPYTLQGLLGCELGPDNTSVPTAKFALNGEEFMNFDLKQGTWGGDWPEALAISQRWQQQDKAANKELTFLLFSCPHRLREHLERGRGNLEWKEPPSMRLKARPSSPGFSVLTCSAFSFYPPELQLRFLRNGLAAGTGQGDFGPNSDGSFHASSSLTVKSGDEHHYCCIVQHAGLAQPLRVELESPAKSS
Sequence of recombinant human FcRn (heterodimer of FcRn heavy chain and beta2-microglobulin) (human) (P61769 21-119 limits assumed, chain 2 of 2, further chain): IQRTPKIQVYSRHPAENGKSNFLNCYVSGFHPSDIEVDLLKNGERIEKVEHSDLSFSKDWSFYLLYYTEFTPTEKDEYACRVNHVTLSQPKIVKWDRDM

[2] = target: T1, recombinant human FcRn (heterodimer of FcRn heavy chain and beta2-microglobulin) (human, UniProt P55899 24-297; P61769 21-119, limits assumed, biotinylated for the Octet assay (site not stated)); test: as above
T1 construct: In-house recombinant heterodimeric FcRn; captured as biotinylated protein on streptavidin sensors for BLI; also called hFcRn; Fc neonatal receptor
T1 sequence (P55899 24-297 limits assumed, chain 1 of 2): as the sequence (P55899 24-297 limits assumed, chain 1 of 2) above
T1 sequence (P61769 21-119 limits assumed, chain 2 of 2): as the sequence (P61769 21-119 limits assumed, chain 2 of 2, further chain) above
Protocol: (§1) Octet binding analysis. […] Biotinylated FcRn at 1 μg/mL in PBS buffer (pH 7.4) or 100 mM MES buffer (pH 6.0), with 3 mg/mL bovine serum albumin, 0.05% (vol/vol) and Tween 20 (1× Kinetics Buffer; ForteBio), were captured on streptavidin biosensors (ForteBio). The loaded biosensors were washed with assay buffer to remove any unbound protein, followed by association and dissociation measurements with serial dilutions of the different Fc variants or Fc fusion constructs. Octet software (version 7.2) was used to calculate kinetic parameters (kₒₙ and koff) and apparent affinities (KD) from a nonlinear fit based on the 1:1 binding kinetic model of the data, with the equation

[3] = target: T1, recombinant human FcRn (heterodimer of …); test: BLI (Octet) on recombinant FcRn, pH 6 against neutral pH
Protocol: as §1

Molecule	Kd [1] [µM]	Kd [2] [µM]	fold decrease from pH 6 binding to neutral pH binding [3] [fold]
MFc1 (C4), monomeric IgG4 Fc variant with YTE mutations (from UniProt P01861 111-327)	0.37	–	–
B1	–	3.56	–
B2	–	0.33	~50
B3	–	0.005	~50
